Test results from patent US20260042834A1 (HBM ALPHA THERAPEUTICS, published 2026).

T1: biotinylated CRH (human and mouse, not fully specified; biotinylated, position not stated)
T1 construct: also called Biotin-CRH; biotin-labeled CRH
T1 peptide: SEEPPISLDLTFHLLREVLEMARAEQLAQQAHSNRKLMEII


Biological target: T1, biotinylated CRH
Experiment: Octet BLI, biotinylated CRH on SA sensor
Experimental: Octet® Red 96e was used for affinity measurement. Octet® running buffer was prepared by diluting kinetics buffer 10× (Fortebio, Cat #18-1105) in PBS according to the manufacturer's instructions. Two columns of SA sensors (Fortebio, Cat #18-5019) were hydrated in running buffer for 10 mins, one for ligand capturing and the other for reference. Antibodies were 2-fold diluted and added into a 96-well plate. […] After a 60-second baseline step, sensors were dipped into analyte and buffer wells successively, with the association and dissociation time of 180 seconds and 800 seconds, respectively. […] Signals of reference wells and reference sensors were subtracted by selecting “Double reference” before data fitting.

Kd	koff	kon	Binder
0.00124 nM			PR301777 (antibody, human IgG1, kappa, V domains shown, Series 5; mouse variable domains with human IgG1 wildtype Fc) VH: EMKLEESGGGLVQPGGSMKLSCVASGFTFSNYWMNWVRQSPEKGLEWVAEIRLKSNNYATHYAESVKGRFTISRDDSKSGVYLQMNNLGAEDTGIYYCTVGTLVYWGQGTLVTVSA VL: DIVLTQSPASLAVSLGQRATISCRASQSVSTSTYNYMHWFQQKPGQPPKLLIKFASNLESGVPARFSGSGSGTDFTLNIHPVEEEDTATFYCQHSWEIPYTFGGGTKLEIKR
0.12 nM			PR006669 (antibody, human IgG1, kappa, V domains shown, Series 2; human IgG1 wildtype Fc; also called Hybridoma Clone 52g7) VH: EVQLVESGGGLVQPGGSLRLSCAASGFTFSDNWMSWVRQAPGKGLEWVANIKQDGSENYYVDSVKGRFTISRDNAKNSLYLQMNSLRAEDTAVYYCSRGLALWGWGQGTLVTVSS VL: DIVMTHSPLSLPVTPGDPASISCRSSQSLLHSTGYNYLDWYLQKPGQSPQLLIYLGSNRASGVPDRFSGSGSGTDFTLKFIRVEAEDVGVYYCMQALQTPYTFGQGTKLEIKR
0.0751 nM	8.69e-05 s⁻¹	1.16e+06 M⁻¹ s⁻¹	PR006746 (antibody, human IgG1, kappa, V domains shown, PTM-removal variant of PR006669) VH: EVQLVESGGGLVQPGGSLRLSCAASGFTFSDNWMSWVRQAPGKGLEWVANIKQDSSENYYVDSVKGRFTISRDNAKNSLYLQMNSLRAEDTAVYYCSRGLALWGWGQGTLVTVSS VL: DIVMTHSPLSLPVTPGDPASISCRSSQSLLHSTGYNYLDWYLQKPGQSPQLLIYLGSNRASGVPDRFSGSGSGTDFTLKFIRVEAEDVGVYYCMQALQTPYTFGQGTKLEIKR
< 0.001 nM	< 1e-07 s⁻¹	6840 M⁻¹ s⁻¹	PR302334-10 (antibody, human IgG1, kappa, V domains shown, Humanized variant of PR302334) VH: EVQLVESGGGLVQPGGSLRLSCAASGFTFSTYAMSWVRQAPGKGLEWVASIRSGGTTYYPDSVKGRFTISRDNSKNTLYLQMNSLRAEDTAVYYCTRGIDWGQGTTVTVSS VL: DIVMTQSPDSLAVSLGERATINCKASQSVNNDVAWYQQKPGQPPRLLIYYASNRYTGVPDRFSGSGSGTDFTLTISSLQAEDLAVYFCQQDYSSWTFGGGTKVEIKR
< 0.001 nM	< 1e-07 s⁻¹	14700 M⁻¹ s⁻¹	PR302334-8 (antibody, human IgG1, kappa, V domains shown, Humanized variant of PR302334) VH: EVQLVESGGGLVQPGGSLRLSCAASGFTFSTYAMSWVRQAPGKGLEWVASIRSGGTTYYPDSVKGRFTISRDNSKNTLYLQMNSLRAEDTAVYYCTRGIDWGQGTTVTVSS VL: EIVMTQSPATLSVSPGERATLSCKASQSVNNDVAWYQQKPGQAPRLLIYYASNRYTGIPARFSGSGSGTEFTLTISSLQSEDLAVYFCQQDYSSWTFGGGTKVEIKR
< 0.001 nM	< 1e-07 s⁻¹	606000 M⁻¹ s⁻¹	PR302334-24 (antibody, human IgG1, kappa, V domains shown, Humanized variant of PR302334) VH: EVQLVESGGGLVKPGGSLRLSCAASGFTFSTYAMSWVRQAPGKGLEWVASIRSGGTTYYPDSVKGRFTISRDNAKNSLYLQMNSLRAEDTAVYYCTRGIDWGQGTTVTVSS VL: DIVMTQSPDSLAVSLGERATINCKASQSVNNDVAWYQQKPGQPPRLLIYYASNRYTGVPDRFSGSGSGTDFTLTISSLQAEDLAVYFCQQDYSSWTFGGGTKVEIKR
0.0153 nM	4.03e-06 s⁻¹	263000 M⁻¹ s⁻¹	PR302309 (antibody, human IgG1, kappa, V domains shown, Series 7; mouse variable domains with human IgG1 wildtype Fc) VH: QIQLVQSGPELKKPGETVKISCKASGYTFTNYGMNWVKQAPGKVLKWMGWINTYTGEPIYTDDFKGRFAFSLETSASTAYLQINNLKNEDTATYFCSRSTMITTGGVFAYWGQGTLVTVSA VL: DVLMAQTPLSLPVSLGDQASISCRSSQTIVHSDGNTYLEWYLQKPGQSPKLLIYKVSNRFSGVPDRFSGSGSGTDFTLKISRVEAEDLGVYYCFQGSHVPWTFGGGTKLEIKR
0.171 nM	8.36e-05 s⁻¹	487000 M⁻¹ s⁻¹	PR006153 (antibody, human IgG1, kappa, V domains shown, PTM-removal variant of PR004290) VH: EVQLVESGGVLVQPGGSLRLSCAASGFTFSSYWMTWVRQAPGKGLEWVANIKQDSSEKYYVDSVKGRFTISRDNAKNSLFLQMNSLRAEDTAVYYCARTLIFDYWGQGTLVTVSS VL: DIVMTQSPLSLPVTPGEPASISCRSSQSLLHSTGYSSLEWYLQKPGQSPQLLIYLGSNRASGVPDRFSGSGSGTDFTLKISRVEAEDVGIYYCMQTLQTPITFGQGTRLEIKR
